Target: Her2 (UniProt P04626)
Assay: cell-based or functional assay

“antibody-payload conjugate (ADC, trastuzumab-DM1 conjugate)” showed an IC50, in vitro cytotoxicity on BT474 cells of 0.0296 µg/mL and an IC50, in vitro cytotoxicity on NCI-N87 cells of 0.0821 µg/mL.

Source: patent publication US20250312467A1
